Test results reported in paper PMC12617621 (Computational and Structural Biotechnology Journal, 2025).

T1: (NPNA)4 peptide (Plasmodium falciparum CSP repeat …)
T1 chain: NPNANPNANPNANPNA


Target: T1, (NPNA)4 peptide
Test: SPR

Binder | binding result
native anti-NANP Fab (Fab, V domains shown) VH: EVQLVESGGGLVQPGRSLRLPCTASGFSFGDHAMSWVRQAPGKGLEWVGFIRKTTYGATTHYAAAVRGRFTISRDDSKSIVYLQMNSLKTEDTAVYFCTRVQLDYGPGYQYYGMDVWGQGTTVTVSS VL: ESVLTQPPSVSGAPGQRVTISCTGMNSNIGAGYDVYWYQQLPGRAPKLLIYGNSNRPSGVPDRFSGSRSGTSASLAITGLQAEDEADYYCQSYDTSLNGWAFGGGTKLTVL | binds
G112T mutant anti-NANP Fab (Fab, V domains shown) VH: EVQLVESGGGLVQPGRSLRLPCTASGFSFGDHAMSWVRQAPGKGLEWVGFIRKTTYGATTHYAAAVRGRFTISRDDSKSIVYLQMNSLKTEDTAVYFCTRVQLDYGPGYQYYGMDVWGQGTTVTVSS VL: ESVLTQPPSVSGAPGQRVTISCTGMNSNIGAGYDVYWYQQLPGRAPKLLIYGNSNRPSGVPDRFSGSRSGTSASLAITGLQAEDEADYYCQSYDTSLNGWAFGGGTKLTVL | binds
